Substitutions are numbered along the chain they refer to.
T1: ZIKV E DIII protein (residues 301-403) (Zika virus (strain GZ01))
T1 chain: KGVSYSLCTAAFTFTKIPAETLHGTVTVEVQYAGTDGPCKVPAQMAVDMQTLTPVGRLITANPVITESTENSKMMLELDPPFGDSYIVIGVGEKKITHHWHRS

B1: 2H-15 (antibody, V domains shown)
VH: EVQLVQSGAEVKKPGASVKVSCKASGYTFTSYDVNWVRQATGQGLEWMGWMNPNSGNTGYAQKFQGRVTMTRNTSISTAYMELSSLRSEDTAVYYCARVSSGSYYGSYYYYYYGMDVWGQGTTVTVSS
VL: SYELTQPPSASGTPGQRVTISCSGSSSNIGNNYVHWYQQLPGSAPKLLIYRNNQRPSGVPDRFSGSKSGTSGSLAISGLRSEDEADYYCASWDDSLSGHWVFGGGTKVTVL
B2: 2H-6 (antibody, V domains shown)
VH: B1 VH with M51L, Q62E
VL: B1 VL
B3: 2H-9 (antibody, V domains shown)
VH: B1 VH with A9G, E10K, K12V, K13E, P14L, S31T, V34I
VL: B1 VL
B4: 2H-4 (antibody, V domains shown)
VH: B1 VH with E1Q, A9R, A24G, V34I, T41P, E89G
VL: B1 VL
B5: 2H-1 (antibody, V domains shown)
VH: B1 VH with E1Q, V34I
VL: B1 VL
B6: 2H-10 (antibody, V domains shown)
VH: B1 VH with E1Q, A9V, K19E, K23Q, Y27I, F29S, V34I, T41N
VL: B1 VL
B7: 2H-3 (antibody, V domains shown)
VH: B1 VH with E1Q, A9R, D33E, V34I
VL: B1 VL
B8: 2H-2 (antibody, V domains shown)
VH: QVQLVQSGAEVKKPGSSVKVSCKASGGTFSSYAISWVRQATGQGLEWMGGIIPIFGTANYAQKFQGRVTITADESTSTAYMELSSLRSEDTAVYYCARVSSGSYYGSYYYYYYGMDVWGQGTTVTVSS
VL: B1 VL
B9: 2H-16 (antibody, V domains shown)
VH: B1 VH with E1Q, V34I, Y60C
VL: B1 VL
B10: 2H-14 (antibody, V domains shown)
VH: B1 VH with E1Q, Q3H, L4A, D33G, V34I
VL: B1 VL
B11: 2H-5 (antibody, V domains shown)
VH: B1 VH with E1Q, K19N, S31M, V34I, A40T
VL: B1 VL
B12: 2L-1 (antibody, V domains shown)
VH: EVQLVQSGAEVKKPGASVKVSCKASGYTFTSGHTFPSYDINWVRQATGQGLEWMGWMNPNRGNTGYAQKFQGRVTMTRNTSINTAYMELSSLRSEDTAVYYCARVRSGTNYGSYYYYYYGMDVWGQGTTVTVSS
VL: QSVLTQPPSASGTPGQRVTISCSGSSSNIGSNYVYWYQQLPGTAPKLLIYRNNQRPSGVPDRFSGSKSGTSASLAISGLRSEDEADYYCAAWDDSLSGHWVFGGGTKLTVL
B13: ZK2B10 (antibody, V domains shown)
VH: B12 VH
VL: B1 VL
B14: 2L-2 (antibody, V domains shown)
VH: B12 VH
VL: QSVLTHRPSASGHPGQRVTISCSGSSSNIGNNYVYWYQQLPGTAPKLLIYRNNQRPSGVPDRFSGSKSGTSASLAISGLRSEDEADYYCAAWDDSLSGHWVFGGGTKLTVL
B15: 2L-3 (antibody, V domains shown)
VH: B12 VH
VL: B14 VL with H13T, N31S, V34G
B16: 2L-9 (antibody, V domains shown)
VH: B12 VH
VL: B14 VL with Q1S, H6Q, R7P, H13T, S27T, N31S, V34A, Q39Y, S66F, I76V
B17: 2L-11 (antibody, V domains shown)
VH: B12 VH
VL: B14 VL with Q1Y, H6D, R7H, H13T, N31S, Q39E, R51N, D86Y
B18: 2L-6 (antibody, V domains shown)
VH: B12 VH
VL: SVLQPQPPSASRHPGQRVTISCLHGSSSNIGNNYVSWYQQLPGTDPKLLIYRNNHAASGVPDRFSGSKSGTSASLAISGLRSEDEADYYCAAWDDSLSGHWVFGGGTKLTVL
B19: 2L-8 (antibody, V domains shown)
VH: B12 VH
VL: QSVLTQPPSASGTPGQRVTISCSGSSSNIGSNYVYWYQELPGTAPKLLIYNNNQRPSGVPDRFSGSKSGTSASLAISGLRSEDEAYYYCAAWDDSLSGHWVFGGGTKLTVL

Legend:
ZIKV E protein (GZ01) = ZIKV E protein (GZ01) (Zika virus (strain GZ01)); assay: ELISA
[1] = molecular target: T1, ZIKV E DIII protein (residues 301-403); assay: ELISA

Row | Binder | EC50 (ZIKV E protein (GZ01)) | EC50 [1]
1 | B1 | 7.5 ng/mL | 10 ng/mL
2 | B2 | 4.6 ng/mL | 3.9 ng/mL
3 | B3 | 4.2 ng/mL | 5.9 ng/mL
4 | B4 | 6.5 ng/mL | 8.4 ng/mL
5 | B5 | 5.3 ng/mL | 3.4 ng/mL
6 | B6 | 5.2 ng/mL | 11.2 ng/mL
7 | B7 | 23.7 ng/mL | 39 ng/mL
8 | B8 | > 500 ng/mL | > 500 ng/mL
9 | B9 | 5.8 ng/mL | 4.1 ng/mL
10 | B10 | 242 ng/mL | 215 ng/mL
11 | B11 | 6.2 ng/mL | 4.8 ng/mL
12 | B12 | > 500 ng/mL | > 500 ng/mL
13 | B13 | 3.3 ng/mL | 7.1 ng/mL
14 | B14 | 216 ng/mL | 267 ng/mL
15 | B15 | > 500 ng/mL | > 500 ng/mL
16 | B16 | > 500 ng/mL | > 500 ng/mL
17 | B17 | > 500 ng/mL | > 500 ng/mL
18 | B18 | 356 ng/mL | 335 ng/mL
19 | B19 | > 500 ng/mL | > 500 ng/mL
